Measured values reported in patent publication US20130005646A1 (Novo Nordisk, published 2013).
Starred links: 1 amine or outer side, 2 acyl side, 3 side chain; linkers in the order of their positions; H or OH if unused. Positions of bridges follow the written chain, without caps; N, C: chain ends. Groups on a side chain read outwards from the residue. No end group written: not given here. *: point of attachment. C20 diacid = O=C(O)CCCCCCCCCCCCCCCCCCC(=O)*; C18 diacid = O=C(O)CCCCCCCCCCCCCCCCC(=O)*; γGlu = O=C(O)[C@H](CCC(=O)[*:2])N[*:1]; AEEA = NCCOCCOCC(=O)O

T1: human amylin 3(a) receptor (human calcitonin receptor + RAMP-3) (human, UniProt P30988 25-474; O60896 24-148)
T1 sequence (looked up) 1: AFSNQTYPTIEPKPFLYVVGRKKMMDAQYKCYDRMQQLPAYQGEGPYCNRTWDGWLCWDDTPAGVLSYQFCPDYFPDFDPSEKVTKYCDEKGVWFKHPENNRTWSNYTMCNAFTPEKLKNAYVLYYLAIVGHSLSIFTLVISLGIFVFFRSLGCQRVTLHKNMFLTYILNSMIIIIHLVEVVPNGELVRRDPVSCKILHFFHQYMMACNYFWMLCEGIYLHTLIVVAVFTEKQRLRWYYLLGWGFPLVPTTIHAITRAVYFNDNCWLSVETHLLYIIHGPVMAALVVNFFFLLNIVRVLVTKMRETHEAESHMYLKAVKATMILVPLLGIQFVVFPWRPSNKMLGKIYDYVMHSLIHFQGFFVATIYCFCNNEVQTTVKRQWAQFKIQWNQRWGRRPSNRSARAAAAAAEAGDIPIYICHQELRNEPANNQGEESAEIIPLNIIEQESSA
T1 sequence (looked up) 2: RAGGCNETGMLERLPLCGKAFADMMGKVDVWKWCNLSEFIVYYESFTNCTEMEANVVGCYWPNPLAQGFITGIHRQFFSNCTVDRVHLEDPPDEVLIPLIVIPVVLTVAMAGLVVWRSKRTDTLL

T2: human calcitonin (a) receptor (human, UniProt P30988 25-474)
T2 sequence (looked up): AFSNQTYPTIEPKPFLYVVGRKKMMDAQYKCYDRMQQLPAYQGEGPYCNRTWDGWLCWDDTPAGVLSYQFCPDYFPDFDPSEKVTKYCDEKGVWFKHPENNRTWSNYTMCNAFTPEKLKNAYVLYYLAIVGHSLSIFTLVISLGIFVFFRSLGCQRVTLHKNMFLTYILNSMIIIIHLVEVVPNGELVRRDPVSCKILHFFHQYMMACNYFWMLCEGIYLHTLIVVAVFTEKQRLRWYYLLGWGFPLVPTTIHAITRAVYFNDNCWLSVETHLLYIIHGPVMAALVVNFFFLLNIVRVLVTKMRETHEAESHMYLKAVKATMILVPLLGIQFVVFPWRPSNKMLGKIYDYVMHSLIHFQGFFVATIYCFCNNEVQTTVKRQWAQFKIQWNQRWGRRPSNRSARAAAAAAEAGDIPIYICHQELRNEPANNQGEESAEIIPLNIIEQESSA


Tests used:
[1] = target: T1, human amylin 3(a) receptor (human …); test: cell-based or functional assay
[2] = target: T2, human calcitonin (a) receptor; test: cell-based or functional assay

| Amylin receptor human EC50 [1] [nM] | CTa receptor human EC50 [2] [nM] | Binder |
| --- | --- | --- |
| 0.089 | 0.101 | KCNTATCATQRLAEFLVHSSSNFGK([AEEA-AEEA-γGlu-C18 diacid])ILPPTNVGSNTY-NH2 (disulfide 2-7; N-terminus assumed; SMILES CC[C@H](C)[C@H](NC(=O)[C@H](CCCCNC(=O)COCCOCCNC(=O)COCCOCCNC(=O)CC[C@H](NC(=O)CCCCCCCCCCCCCCCCC(=O)O)C(=O)O)NC(=O)CNC(=O)[C@H](Cc1ccccc1)NC(=O)[C@H](CC(N)=O)NC(=O)[C@H](CO)NC(=O)[C@H](CO)NC(=O)[C@H](CO)NC(=O)[C@H](Cc1c[nH]cn1)NC(=O)[C@@H](NC(=O)[C@H](CC(C)C)NC(=O)[C@H](Cc1ccccc1)NC(=O)[C@H](CCC(=O)O)NC(=O)[C@H](C)NC(=O)[C@H](CC(C)C)NC(=O)[C@H](CCCNC(=N)N)NC(=O)[C@H](CCC(N)=O)NC(=O)[C@@H](NC(=O)[C@H](C)NC(=O)[C@@H]1CSSC[C@H](NC(=O)[C@@H](N)CCCCN)C(=O)N[C@@H](CC(N)=O)C(=O)N[C@@H]([C@@H](C)O)C(=O)N[C@@H](C)C(=O)N[C@@H]([C@@H](C)O)C(=O)N1)[C@@H](C)O)C(C)C)C(=O)N[C@@H](CC(C)C)C(=O)N1CCC[C@H]1C(=O)N1CCC[C@H]1C(=O)N[C@H](C(=O)N[C@@H](CC(N)=O)C(=O)N[C@H](C(=O)NCC(=O)N[C@@H](CO)C(=O)N[C@@H](CC(N)=O)C(=O)N[C@H](C(=O)N[C@@H](Cc1ccc(O)cc1)C(N)=O)[C@@H](C)O)C(C)C)[C@@H](C)O) |
| 0.0585 | 0.099 | {C18 diacid-γGlu}-HKCNTATCATQRLAEFLHHSSNNFGPILPPTNVGSHTY-NH2 (disulfide 3-8; SMILES CC[C@H](C)[C@H](NC(=O)[C@@H]1CCCN1C(=O)CNC(=O)[C@H](Cc1ccccc1)NC(=O)[C@H](CC(N)=O)NC(=O)[C@H](CC(N)=O)NC(=O)[C@H](CO)NC(=O)[C@H](CO)NC(=O)[C@H](Cc1c[nH]cn1)NC(=O)[C@H](Cc1c[nH]cn1)NC(=O)[C@H](CC(C)C)NC(=O)[C@H](Cc1ccccc1)NC(=O)[C@H](CCC(=O)O)NC(=O)[C@H](C)NC(=O)[C@H](CC(C)C)NC(=O)[C@H](CCCNC(=N)N)NC(=O)[C@H](CCC(N)=O)NC(=O)[C@@H](NC(=O)[C@H](C)NC(=O)[C@@H]1CSSC[C@H](NC(=O)[C@H](CCCCN)NC(=O)[C@H](Cc2c[nH]cn2)NC(=O)CC[C@H](NC(=O)CCCCCCCCCCCCCCCCC(=O)O)C(=O)O)C(=O)N[C@@H](CC(N)=O)C(=O)N[C@@H]([C@@H](C)O)C(=O)N[C@@H](C)C(=O)N[C@@H]([C@@H](C)O)C(=O)N1)[C@@H](C)O)C(=O)N[C@@H](CC(C)C)C(=O)N1CCC[C@H]1C(=O)N1CCC[C@H]1C(=O)N[C@H](C(=O)N[C@@H](CC(N)=O)C(=O)N[C@H](C(=O)NCC(=O)N[C@@H](CO)C(=O)N[C@@H](Cc1c[nH]cn1)C(=O)N[C@H](C(=O)N[C@@H](Cc1ccc(O)cc1)C(N)=O)[C@@H](C)O)C(C)C)[C@@H](C)O) [N-alpha-[(S)-4-Carboxy-4-(17-carboxyheptadecanoylamino)butyryl]-His-[Glu14,His17,His35]-pramlintide] |
| 0.066 | 0.11 | {C20 diacid-γGlu}-HCNTATCATQRLAEFLHRSSNNFGPILPPTNVGSHTY-NH2 (disulfide 2-7; SMILES CC[C@H](C)[C@H](NC(=O)[C@@H]1CCCN1C(=O)CNC(=O)[C@H](Cc1ccccc1)NC(=O)[C@H](CC(N)=O)NC(=O)[C@H](CC(N)=O)NC(=O)[C@H](CO)NC(=O)[C@H](CO)NC(=O)[C@H](CCCNC(=N)N)NC(=O)[C@H](Cc1c[nH]cn1)NC(=O)[C@H](CC(C)C)NC(=O)[C@H](Cc1ccccc1)NC(=O)[C@H](CCC(=O)O)NC(=O)[C@H](C)NC(=O)[C@H](CC(C)C)NC(=O)[C@H](CCCNC(=N)N)NC(=O)[C@H](CCC(N)=O)NC(=O)[C@@H](NC(=O)[C@H](C)NC(=O)[C@@H]1CSSC[C@H](NC(=O)[C@H](Cc2c[nH]cn2)NC(=O)CC[C@H](NC(=O)CCCCCCCCCCCCCCCCCCC(=O)O)C(=O)O)C(=O)N[C@@H](CC(N)=O)C(=O)N[C@@H]([C@@H](C)O)C(=O)N[C@@H](C)C(=O)N[C@@H]([C@@H](C)O)C(=O)N1)[C@@H](C)O)C(=O)N[C@@H](CC(C)C)C(=O)N1CCC[C@H]1C(=O)N1CCC[C@H]1C(=O)N[C@H](C(=O)N[C@@H](CC(N)=O)C(=O)N[C@H](C(=O)NCC(=O)N[C@@H](CO)C(=O)N[C@@H](Cc1c[nH]cn1)C(=O)N[C@H](C(=O)N[C@@H](Cc1ccc(O)cc1)C(N)=O)[C@@H](C)O)C(C)C)[C@@H](C)O) |
| 0.0795 | 0.947 | {C18 diacid-γGlu}-HKCNTATCATQRLAEFLRHSSNNFGPILPPTNVGSHTY-NH2 (disulfide 3-8; SMILES CC[C@H](C)[C@H](NC(=O)[C@@H]1CCCN1C(=O)CNC(=O)[C@H](Cc1ccccc1)NC(=O)[C@H](CC(N)=O)NC(=O)[C@H](CC(N)=O)NC(=O)[C@H](CO)NC(=O)[C@H](CO)NC(=O)[C@H](Cc1c[nH]cn1)NC(=O)[C@H](CCCNC(=N)N)NC(=O)[C@H](CC(C)C)NC(=O)[C@H](Cc1ccccc1)NC(=O)[C@H](CCC(=O)O)NC(=O)[C@H](C)NC(=O)[C@H](CC(C)C)NC(=O)[C@H](CCCNC(=N)N)NC(=O)[C@H](CCC(N)=O)NC(=O)[C@@H](NC(=O)[C@H](C)NC(=O)[C@@H]1CSSC[C@H](NC(=O)[C@H](CCCCN)NC(=O)[C@H](Cc2c[nH]cn2)NC(=O)CC[C@H](NC(=O)CCCCCCCCCCCCCCCCC(=O)O)C(=O)O)C(=O)N[C@@H](CC(N)=O)C(=O)N[C@@H]([C@@H](C)O)C(=O)N[C@@H](C)C(=O)N[C@@H]([C@@H](C)O)C(=O)N1)[C@@H](C)O)C(=O)N[C@@H](CC(C)C)C(=O)N1CCC[C@H]1C(=O)N1CCC[C@H]1C(=O)N[C@H](C(=O)N[C@@H](CC(N)=O)C(=O)N[C@H](C(=O)NCC(=O)N[C@@H](CO)C(=O)N[C@@H](Cc1c[nH]cn1)C(=O)N[C@H](C(=O)N[C@@H](Cc1ccc(O)cc1)C(N)=O)[C@@H](C)O)C(C)C)[C@@H](C)O) [N-alpha-[(S)-4-Carboxy-4-(17-carboxyheptadecanoylamino)butyryl]-His-[Glu14,Arg17,His35]-pramlintide] |
| 0.365 | 0.286 | {C20 diacid-γGlu}-CNTATCATQRLAEFLHHSSNNFGPILPPTNVGSHTY-NH2 (disulfide 1-6; SMILES CC[C@H](C)[C@H](NC(=O)[C@@H]1CCCN1C(=O)CNC(=O)[C@H](Cc1ccccc1)NC(=O)[C@H](CC(N)=O)NC(=O)[C@H](CC(N)=O)NC(=O)[C@H](CO)NC(=O)[C@H](CO)NC(=O)[C@H](Cc1c[nH]cn1)NC(=O)[C@H](Cc1c[nH]cn1)NC(=O)[C@H](CC(C)C)NC(=O)[C@H](Cc1ccccc1)NC(=O)[C@H](CCC(=O)O)NC(=O)[C@H](C)NC(=O)[C@H](CC(C)C)NC(=O)[C@H](CCCNC(=N)N)NC(=O)[C@H](CCC(N)=O)NC(=O)[C@@H](NC(=O)[C@H](C)NC(=O)[C@@H]1CSSC[C@H](NC(=O)CC[C@H](NC(=O)CCCCCCCCCCCCCCCCCCC(=O)O)C(=O)O)C(=O)N[C@@H](CC(N)=O)C(=O)N[C@@H]([C@@H](C)O)C(=O)N[C@@H](C)C(=O)N[C@@H]([C@@H](C)O)C(=O)N1)[C@@H](C)O)C(=O)N[C@@H](CC(C)C)C(=O)N1CCC[C@H]1C(=O)N1CCC[C@H]1C(=O)N[C@H](C(=O)N[C@@H](CC(N)=O)C(=O)N[C@H](C(=O)NCC(=O)N[C@@H](CO)C(=O)N[C@@H](Cc1c[nH]cn1)C(=O)N[C@H](C(=O)N[C@@H](Cc1ccc(O)cc1)C(N)=O)[C@@H](C)O)C(C)C)[C@@H](C)O) [N-alpha-[(S)-4-Carboxy-4-(19-carboxynonadecanoylamino)butyryl]-[des1,Glu14,His17,His35]-pramlintide] |
